Data: US11124785B2, “Rothia subtilisins, S8A family proteases, as therapeutic enzymes for application in gluten intolerance disorders” (TRUSTEES OF BOSTON UNIVERSITY, priority 2016, dated 2021)

How the values were obtained:
subtilisin A = target: T1, subtilisin A (Bacillus licheniformis, UniProt P00780); assay: Inhibition of subtilisin A by Eglin C; format: biochemical; conditions: Eglin C 1.2 μM; Suc-AAPF-pNA
T1 construct: purchased Sigma
Description: (§1) Hydrolysis of paranitroanilide-derivatized substrates—Paranitroanilide (pNA)-derivatized tripeptide substrates were chemically synthesized at >90% purity (21st Century Biochemicals, Marlborough, Mass.). The substrates obtained were Z-YPQ-pNA, Z-QQP-pNA, Z-LPY-pNA, Z-PFP-pNA, Z-PPF-pNA, where Z=benzyloxycarbonyl, Y=tyrosine, P=proline, Q=glutamine, L=leucine, and F=phenylalanine Suc-AAPF-pNA (SEQ ID NO: 4) was obtained from Sigma, where Suc=N-succinyl and A=alanine. The peptides were dissolved in 75-100% DMSO at 10 mM, and were used at a final concentration of 200 μM in 50 mM TrisHCl pH 8.0. Purified Rothia enzyme or subtilisin A from Bacillus licheniformis (Sigma) were tested at final concentrations of 1 μg/ml. Some experiments were conducted in the presence of inhibitors 4-(2-Aminoethyl) benzenesulfonyl fluoride (AEBSF), Aprotinin, E-64, EDTA, phenylmethanesulfonyl fluoride (PMSF) and Eglin C, which were tested at final concentrations of 10 mM, 0.08 mM, 0.1 mM, 1.5 mM, 1 mM, and 0.06-1.2 μM, respectively. Enzymes were preincubated with the inhibitors for 20 min before adding Suc-AAPF-pNA (SEQ ID NO: 4). Substrate hydrolysis was monitored for 10 h at 405 nm using a Genios microtiter plate reader (Tecan, Männedorf, Switzerland) in the kinetic mode at 37° C.

[1] = test system: R. mucilaginosa enzyme preparation (Rmep); assay: Inhibitor profile of Rmep (Suc-AAPF-pNA hydrolysis); format: biochemical, Rothia mucilaginosa; conditions: Eglin C 1.2 μM; Suc-AAPF-pNA
Description: Inhibitors AEBSF, Aprotinin, E-64, EDTA, PMSF and Eglin C were tested at final concentrations of 10 mM, 0.08 mM, 0.1 mM, 1.5 mM, 1 mM, and 0.06 μM, respectively. Rmep was added at a final concentration of 5.7 μg/ml. The percent inhibition was determined from the ratio of the initial velocities of hydrolysis of Suc-AAPF-pNA (SEQ ID NO: 4) in the absence and presence of inhibitor.
as §1

[2] = literature reference; cited from earlier work
casein = assay: Casein zymography of R. aeria cell proteins; format: biochemical; conditions: excised bands 1-4, R. aeria cells, 1% casein
Description: Bands 1-4 were excised and subjected to mass spectrometric analysis of the amino acid sequences and identification of the protein. The protein was identified as BAV86562.1 from Rothia aeria.
SDS-PAGE and casein zymography—The four cell pellets were resuspended each in 200 μl zymogram sample buffer^2. To separate the proteins, the samples were applied to a non-reducing (no DTT or β-mercaptoethanol-containing) 6% SDS-PAGE gel of 16 cm×20 cm×0.15 cm, using a protean II xi cell system (Bio-Rad, Hercules, Calif.). The composition of this gel was the same as that of previously published 6% gliadin zymogram gels but without incorporation of gliadin^2. After electrophoresis at a constant voltage of 120V at 4° C., the gel was divided in two halves (“A-gel” and “B-gel”). One-half (“A-gel”) was stained with 0.1% Coomassie Brilliant Blue in 40% (v/v) methanol/10% (v/v) acetic acid. The other half (“B-gel”) was developed as a zymogram gel^3. (See FIGS. 12A and 12B). For this, the B-gel was washed twice for 30 min in buffer containing 2.5% Triton X-100 (renaturing buffer; Life Technologies, Carlsbad, Calif.), followed by washing twice for 1 h in buffer containing 20 mM Tris-HCl, pH 7.5 (developing buffer; Life Technologies, Carlsbad, Calif.). The B-gel was then incubated in developing buffer supplemented with 1% casein (Sigma, St. Louis, Mo.) at 37° C. for 1.5 h. […]

T1 sequence (P00780 106-379): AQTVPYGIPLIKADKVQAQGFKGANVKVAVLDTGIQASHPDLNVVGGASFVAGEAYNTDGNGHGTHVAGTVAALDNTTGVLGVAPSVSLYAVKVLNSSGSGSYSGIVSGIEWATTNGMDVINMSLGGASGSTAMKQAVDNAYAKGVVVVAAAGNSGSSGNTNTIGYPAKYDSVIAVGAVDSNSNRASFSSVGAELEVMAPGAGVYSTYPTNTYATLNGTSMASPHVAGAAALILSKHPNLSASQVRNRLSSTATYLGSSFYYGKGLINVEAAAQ

B1: Eglin C: an effective inhibitor of B. licheniformis subtilisin A (protein)
chain: TEFGSELKSFPEVVGKTVDQAREYFTLHYPQYDVYFLPEGSPVTLDLRYNRVRVFYNPGTNVVNHVPHVG
- inhibition of B. licheniformis subtilisin A by Eglin C (subtilisin A): effective inhibitor
- inhibition of Rmep by high concentrations of Eglin C [1]: only partly inhibited

B2: BAV86562.1: Rothia aeria protein annotated glycerol-3-phosphate ABC transporter, belongs to the subtilisin family (peptidase S8) (protein, listed as Rothia aeria)
chain: MAITAGLPATAAPAGDPDTPVAQDIARNSREHAVLSDSMKKAEGNIPVFVQFKGKGAYEQTQSPAVLANKQAPTNKQAEVQAIKTQVQSQAQAAAQSTGAKTLYTTHNIMRGVALQGDAAQIRALANNPEVERITPIVPKKKQNAGSVVDTGAAENWARENSGYTGKDVKIAVVDSGIDYTHADFGGPGTVEAFNKATKLTEMPAADSGLYDAKKYIGGYDLVGDSYDGTNQTAPDNNPIDCSAGGHGTHVAGTAAGYGVNQDGTTFRGDYSKLTAEQLNQMKIGPGAAPEAQLYSFRVFGCTGTTGVVVQALDRTLDPNGDGDFSDRANIVNLSIGGEFSPPDDADAYAVESLNRQGVLAVVSAGNATDYYGRGDTYSDSGQPANAVSALTVANSIGSSYAVDSMEIQAPANVAGKVPGDYTVSYTYTGAKPEALTGTVVTPSESNKFGCEAFSAEDAAKIKDKWVFLEWANADGSLPCGSKVRFDNVEKAGGKGVVLSSEEEKPALPIGGNESIPGFRVAKSASAKVREAAANGELKVRLGTDLKESLRVPSNKKDQLTASSARGYHGTYGYTKPDVAAPGNNISSARVGTGTDGISYTGTSMSAPFAAGVAAQVLQANQSYGPTQLKAAIMNSANHDVRTADGNVYAVDRVGSGRIDAKAAAETKVLLYNADRPAQVSQTFGVLEYAVNEGKQTLTREMTVENFDSHTHTYNISYAGSTDMPGVEFSLPSNITVNPGEKKNFTVTITIDPAAMEKTMDPAMEKTHNSVDPYGDGTELVPEQYRQFIASESGRILLTEGAATLRAPIHAAPKPASAMKVEGSSVEIPAGEHQANLKLTGTELNQRGYKSLLGAFEHGASIERTSPVKLDVSSNAKANMQHVGAASTAPALKASGGNPNDGLLAFGISTWANWDVVSTENTFTVNIDTDGNNRADYMLVTDRAKGIDFPIVRLYGYKNGNLEQIAYYPLNNAWGDTDTNMMDSNALVMAVPLKDLGLSAEKTKDIKYSVSATTQYAWTNVSETGWINYRPFDPKLWFSGTAATVPGFFADAPSSELVAHRAEGATDVKALFLHMHNTTGDLSGLNGAAGNRAQVLEVTEQQQLDPAPSRFTDVPAENQFYAEINWLAQRRITTGYPDGTFRPGENVERGAMAAYFYRLAGTPQFTAPDNPTFSDVPKSHPFYKEIEWMAARGITTGYGDGTFRPSASVNRDAMAAFFYRYANSPQFAAPAASPFKDVPANSQFYKEIAWLAEQGITKGWDDGTYRPGEPIHRDAMAAFLYRYSDKVLK
- pH values down to which activity is retained [2]: ≥ 3.0

B3: KGJ00122.1: peptidase S8, subtilisin from Rothia dentocariosa (protein, listed as Rothia dentocariosa)
chain: MPKNTPIRGLSRACLSATLGVTMAITAGLPATAAPAGDPDTPVAQDIARNSREHAVLSDSMKKAEGNIPVFVQFKGKGAYEQTQSPAVLANKQAPINKQAEVQAIKTQVQSQAQAAAQSTGAKTLYTTHNIMRGVALQGDAAQIRALANNPEVERITPIVPKKKQNAGSVVDTGAAENWARENSGYTGKDVKIAVVDSGIDYTHSDFGGPGTVEAFNKATKLTEMPAADSGLYDAKKYIGGYDLVGDSYDGTNQTTPDNNPIDCSAGGHGTHVAGTAAGYGVNQDGTTFRGDYSKLTAEQLNQMKIGPGAAPEAQLYSFRVFGCTGTTAVVVQALDRTLDPNGDGDFSDRANIVNLSIGGEFSPPDDADAYAVESLNRQGVLAVVSAGNATDYYGRGDTYSDSGQPANAVSALTVANSIGSSYAVDSMEIQAPANVAGKVPGDYTVSYTYTGAKPEALTGTVVTPSESNKFGCEAFSAEDAAKIKDKWVFIEWANADGSLPCGSKVRFDNVEKAGGKGVVLSSEEEKPALPIGGNESIPGFRVAKSASAKVREAAATGELKVRLGADLKESLRVPSNKKDQLTASSARGYHGTYGYTKPDVAAPGNNISSARVGTGTGGISYTGTSMSAPFAAGVAAQVLQANQSYGPTQLKAAIMNSANHDVRTADGNVYAVDRVGSGRIDAKAAAETKVLLYNADRPAQVSQTFGVLEYAVNEGKQTLTREMTVENFDSHTHTYNISYAGSTDMPGVEFSLPSNITVNPGEKKNFTVTITIDPAAMEKTMDPAMEKTHNSVDPYGDGTELVPEQYRQFIASESGRILLTEGAATLRAPIHAAPKPASAMKVEGSSVEIPAGEHQANLKLTGTELNQRGYKSLLGAFEHGASIERTSPVKLDVSSNAKANMQHVGAASTAPALKASGGNPNDGLLAFGISTWANWDVVSTENTFTVNIDTDGNNRADYMLVTDRAKGIDFPIVRLYGYKNGNLEQIAYYPLNNAWGDTDTNMMDSNALVMAVPLKDLGLSAEKTKDIKYSVSATTQYAWTNVSETGWINYRPFDPKLWFSGTAATVPGFFADAPSSELVAHRAEGATDVKALFLHMHNTTGDLSGLNGAAGNRAQVLEVTEQQQLDPAPSRFTDVPAENQFYAEINWLAQRRITTGYPDGTFRPGENVERGAMAAYFYRLAGTPQFTAPDNPTFSDVPKSHPFYKEIEWMAARGITTGYGDGTFRPSDSVNRDAMAAFFYRYANSPQFAAPAASPFKDVPANSQFYKEIAWLAEQGITKGWDDGTYRPGEPIHRDAMAAFLYRYSDKVLK
- activity in the casein degradation assay (zymogram) (casein): gluten-degrading properties
